{"source": "paper PMC7299281", "biological_target": "stabilized prefusion SARS-CoV-2 S ectodomain (SARS-CoV-2) (UniProt P0DTC2)", "assay": "negative-stain electron microscopy"}
{"substance": "COVA2-39 Fab", "values": [{"measurement": "stoichiometry N (Fab per trimer)", "value": 1}]}
{"substance": "COVA2-07 Fab", "values": [{"measurement": "stoichiometry N (Fab per trimer)", "value": 1}]}
{"substance": "COVA2-04 Fab", "values": [{"measurement": "stoichiometry N (Fab per trimer)", "value": 1}]}
{"substance": "COVA1-12 Fab", "values": [{"measurement": "stoichiometry N (Fab per trimer)", "value": 1}]}
{"substance": "COVA2-15 Fab", "values": [{"measurement": "stoichiometry N", "value": 3, "unit": "per trimer"}]}
